Broadly, the EC50 is the midpoint of the concentration-response curve. The low end stands for a more potent agent, the high end for a less potent agent.

This test has as its target T1, feline NGF (feline, UniProt A0ABI7YSK6 122-241).
T1 construct: domain: C-terminal portion; also called fNGF; feline beta-NGF
Nature of the test: ELISA, feline NGF. In general terms: In an ELISA, binding on a coated surface is turned into a signal by an enzyme label.

B1: human-feline chimeric Fulranumab (antibody)
heavy: EVQLVESGGGLVQPGGSLRLSCAASGFTLRSYSMNWVRQAPGKGLEWVSYISRSSHTIFYADSVKGRFTISRDNAKNSLYLQMDSLRDEDTAMYYCARVYSSGWHVSDYFDYWGQGILVTVSSASTTAPSVFPLAPSCGTTSGATVALACLVLGYFPEPVTVSWNSGALTSGVHTFPAVLQASGLYSLSSMVTVPSSRWLSDTFTCNVAHPPSNTKVDKTVRKTDHPPGPKPCDCPKCPPPEMLGGPSIFIFPPKPKDTLSISRTPEVTCLVVALGPDDSDVQITWFVDNTQVYTAKTSPREEQFASTYRVVSVLPILHQDWLKGKEFKCKVNSKSLPSPIERTISKAKGQPHEPQVYVLPPAQEELSRNKVSVTCLIKSFHPPDIAVEWEITGQPEPENNYRTTPPQLDSDGTYFVYSKLSVDRSHWQRGNTYTCSVSHEALHSHHTQKSLTQSPGK
light: AIQLTQSPSSLSASVGDRVTITCRASQGISSALAWYQQKPGKAPKLLIYDASSLESGVPSRFSGSGSGTDFTLTISSLQPEDFATYYCQQFNSYPLTFGGGTKVEIKRSDAQPSVFLFQPSLDELHTGSASIVCILNDFYPKEVNVKWKVDGVVQNKGIQESTTEQNSKDSTYSLSSTLTMSSTEYQSHEKFSCEVTHKSLASTLVKSFNRSECQRE
notes: Chains from the 'List of heavy and light chains to make human-feline chimeric and felinized antibodies'; also called Ful Chimeric; Ful Chim
Regarding B1, the EC50 lay in the range of 0.018 to 0.019 nM.

The values above are taken from patent US20250346657A1 (INTERVET, published 2025).
